Experiments:
Assay type in all cases: biochemical
[1] = Lipase-catalyzed perhydrolysis of triacetin at pH 6.5 (Example 1); details: 250 mM triacetin, 500 mM H2O2, pH 6.5, 1 mg enzyme, 22° C.
Description: Into a 4-mL glass vial with stir bar was added 1 mg enzyme (ICR 101-117, BioCatalytics, Pasadena, Calif.) in 0.050 mL of 50 mM potassium phosphate buffer (pH 6.5), 0.900 mL of 278 mM triacetin in 50 mM potassium phosphate buffer (pH 6.5, 250 mM final triacetin concentration), and 0.052 mL 30% hydrogen peroxide (500 mM final concentration). After stirring for 5 or 30 minutes at 22° C., a 0.250 mL sample was filtered using a 30,000 Nominal Molecular Weight Limit (NMWL) filter (Millipore UltraFree-MC, Millipore Corp., Billerica, Mass.) centrifuged for 2 minute at 12,000 RPM. A portion of the filtered reaction samples was diluted 1:10 with dd water and analyzed for hydrogen peroxide, and the remaining portion of the sample was directly analyzed for peracid using the HPLC assay method (Table 1).

[2] = Lipase-catalyzed perhydrolysis of triacetin at pH 4.0 (Example 2); details: 250 mM triacetin, 500 mM H2O2, pH 4.0, 1 mg enzyme, 22° C.
Description: (§1) Into a 4-mL glass vial with stir bar was added 1 mg enzyme (ICR 101-117, BioCatalytics, Pasadena, Calif.) in 0.050 mL of 50 mM sodium acetate/acetic acid buffer (pH 4.0), 0.900 mL of 278 mM triacetin in 50 mM sodium acetate/acetic acid buffer (pH 4.0, 250 mM final triacetin concentration), and 0.052 mL 30% hydrogen peroxide (500 mM final concentration). […] A portion of the filtered reaction samples was diluted 1:10 with dd water and analyzed for hydrogen peroxide, and the remaining portion of the sample was directly analyzed for peracid using the HPLC assay method (Table 2).

[3] = Lipase-catalyzed perhydrolysis of a mixture of diacetin, triacetin and monoacetin at pH 6.5 (Example 4); details: diacetin (278 mM), triacetin (144 mM), monoacetin (131 mM); for 250 mM H2O2 peracetic acid (ppm), 5 min / 250 mM H2O2 peracetic acid (ppm), 30 min: pH 6.5, 250 mM H2O2, 1 mg enzyme; for 500 mM H2O2 peracetic acid (ppm), 5 min / 500 mM H2O2 peracetic acid (ppm), 30 min: pH 6.5, 500 mM H2O2, 1 mg enzyme
Description: Into a 4-mL glass vial with stir bar was added 1 mg enzyme (ICR 101-117, BioCatalytics, Pasadena, Calif.) in 0.050 mL of 50 mM potassium phosphate buffer (pH 6.5), 0.900 mL of an aqueous mixture containing diacetin (278 mM), triacetin (144 mM) and monoacetin (131 mM) in 50 mM potassium phosphate buffer (pH 6.5), and either 0.052 mL 30% hydrogen peroxide (500 mM final concentration) or 0.026 mL 30% hydrogen peroxide (250 mM final concentration). […] A portion of the filtered reaction samples was diluted 1:10 with dd water and analyzed for hydrogen peroxide, and the remaining portion of the sample was directly analyzed for peracid using the HPLC assay method (Table 4).

[4] = Protease-catalyzed perhydrolysis of acetamide at pH 4.0 (Example 6); details: pH 4.0, 500 mM H2O2, 1 mg protease
Description: as §1, with “protease (Table 6)” for “enzyme (ICR 101-117, BioCatalytics, Pasadena, Calif.)”, “an aqueous mixture containing either a) acetamide (278 mM)” for “278 mM triacetin”, “4.0) or b) diacetamide (278 mM) in 50” for “4.0, 250”, “sodium acetate/acetic acid buffer (pH 4.0),” for “final triacetin concentration),”, “7).” for “2).”

[5] = Protease-catalyzed perhydrolysis of acetamide at pH 6.5 (Example 9); details: pH 6.5, 500 mM H2O2, 1 mg protease
Description: (§2) Into a 4-mL glass vial with stir bar was added 1 mg protease (Table 6) in 0.050 mL of 50 mM potassium phosphate buffer (pH 6.5), 0.900 mL of an aqueous mixture containing either a) acetamide (278 mM) in 50 mM potassium phosphate buffer (pH 6.5) or b) diacetamide (278 mM) in 50 mM potassium phosphate buffer (pH 6.5), and 0.052 mL 30% hydrogen peroxide (500 mM final concentration). […] A portion of the filtered reaction samples was diluted 1:10 with dd water and analyzed for hydrogen peroxide, and the remaining portion of the sample was directly analyzed for peracid using the HPLC assay method (Table 10).

[6] = Protease-catalyzed perhydrolysis of diacetamide at pH 6.5 (Example 9); details: pH 6.5, 500 mM H2O2, 1 mg protease
Description: as §2

Row | Molecule | peracetic acid (ppm), 5 min [1] [ppm] | peracetic acid (ppm), 30 min [1] [ppm] | peracetic acid (ppm), 5 min [2] [ppm] | peracetic acid (ppm), 30 min [2] [ppm] | 250 mM H2O2 peracetic acid (ppm), 5 min [3] [ppm] | 250 mM H2O2 peracetic acid (ppm), 30 min [3] [ppm] | 500 mM H2O2 peracetic acid (ppm), 5 min [3] [ppm] | 500 mM H2O2 peracetic acid (ppm), 30 min [3] [ppm] | acetamide (250 mM) peracetic acid (ppm), 5 min ([4]; 5 min) [ppm] | acetamide (250 mM) peracetic acid (ppm), 30 min ([4]; 30 min) [ppm] | acetamide (250 mM) peracetic acid (ppm), 5 min ([5]; 5 min) [ppm] | acetamide (250 mM) peracetic acid (ppm), 30 min ([5]; 30 min) [ppm] | diacetamide (250 mM) peracetic acid (ppm), 5 min ([6]; 5 min) [ppm] | diacetamide (250 mM) peracetic acid (ppm), 30 min ([6]; 30 min) [ppm]
1 | ICR-107: Pseudomonas cepacia lipase, BioCatalytics (protein, UniProt P22088 45-364, looked up) Triacylglycerol lipase: AAGYAATRYPIILVHGLSGTDKYAGVLEYWYGIQEDLQQNGATVYVANLSGFQSDDGPNGRGEQLLAYVKTVLAATGATKVNLVGHSQGGLSSRYVAAVAPDLVASVTTIGTPHRGSEFADFVQDVLAYDPTGLSSSVIAAFVNVFGILTSSSHNTNQDALAALQTLTTARAATYNQNYPSAGLGAPGSCQTGAPTETVGGNTHLLYSWAGTAIQPTLSVFGVTGATDTSTLPLVDPANVLDLSTLALFGTGTVMINRGSGQNDGLVSKCSALYGKVLSTSYKWNHLDEINQLLGVRGAYAEDPVAVIRTHANRLKLAGV | 179 | 0 | 32 | 135 | 0 | 102 | 17 | 54 | – | – | – | – | – | –
2 | ICR-114: porcine pancreas lipase, BioCatalytics (protein, UniProt P00591 1-450, looked up) Pancreatic triacylglycerol …: SEVCFPRLGCFSDDAPWAGIVQRPLKILPWSPKDVDTRFLLYTNQNQNNYQELVADPSTITNSNFRMDRKTRFIIHGFIDKGEEDWLSNICKNLFKVESVNCICVDWKGGSRTGYTQASQNIRIVGAEVAYFVEVLKSSLGYSPSNVHVIGHSLGSHAAGEAGRRTNGTIERITGLDPAEPCFQGTPELVRLDPSDAKFVDVIHTDAAPIIPNLGFGMSQTVGHLDFFPNGGKQMPGCQKNILSQIVDIDGIWEGTRDFVACNHLRSYKYYADSILNPDGFAGFPCDSYNVFTANKCFPCPSEGCPQMGHYADRFPGKTNGVSQVFYLNTGDASNFARWRYKVSVTLSGKKVTGHILVSLFGNEGNSRQYEIYKGTLQPDNTHSDEFDSDVEVGDLQKVKFIWYNNNVINPTLPRVGASKITVERNDGKVYDFCSQETVREEVLLTLNPC | 135 | 0 | 165 | 53 | 0 | 0 | 0 | 0 | – | – | – | – | – | –
3 | ICR-115: Thermomyces languinosus lipase, BioCatalytics (protein, UniProt O59952 23-291, looked up) Lipase: EVSQDLFNQFNLFAQYSAAAYCGKNNDAPAGTNITCTGNACPEVEKADATFLYSFEDSGVGDVTGFLALDNTNKLIVLSFRGSRSIENWIGNLNFDLKEINDICSGCRGHDGFTSSWRSVADTLRQKVEDAVREHPDYRVVFTGHSLGGALATVAGADLRGNGYDIDVFSYGAPRVGNRAFAEFLTVQTGGTLYRITHTNDIVPRLPPREFGYSHSSPEYWIKSGTLVPVTRNDIVKIEGIDATGGNNQPNIPDIPAHLWYFGLIGTCL | 216 | 113 | 206 | 132 | 0 | 8 | 11 | 8 | – | – | – | – | – | –
4 | ICR-116: Mucor miehei lipase, BioCatalytics (protein, UniProt P19515 95-363, looked up) Lipase: SIDGGIRAATSQEINELTYYTTLSANSYCRTVIPGATWDCIHCDATEDLKIIKTWSTLIYDTNAMVARGDSEKTIYIVFRGSSSIRNWIADLTFVPVSYPPVSGTKVHKGFLDSYGEVQNELVATVLDQFKQYPSYKVAVTGHSLGGATALLCALDLYQREEGLSSSNLFLYTQGQPRVGDPAFANYVVSTGIPYRRTVNERDIVPHLPPAAFGFLHAGEEYWITDNSPETVQVCTSDLETSDCSNSIVPFTSVLDHLSYFGINTGLCT | 238 | 117 | 14 | 0 | 0 | 7 | 0 | 0 | – | – | – | – | – | –
5 | Proteinase K, T. album, recombinantly expressed in P. pastoris: Proteinase K, T. album, recombinantly expressed in P. pastoris, Roche 3115879 (protein, UniProt P06873 106-384, looked up, recombinant, Pichia pastoris) Proteinase K: AAQTNAPWGLARISSTSPGTSTYYYDESAGQGSCVYVIDTGIEASHPEFEGRAQMVKTYYYSSRDGNGHGTHCAGTVGSRTYGVAKKTQLFGVKVLDDNGSGQYSTIIAGMDFVASDKNNRNCPKGVVASLSLGGGYSSSVNSAAARLQSSGVMVAVAAGNNNADARNYSPASEPSVCTVGASDRYDRRSSFSNYGSVLDIFGPGTSILSTWIGGSTRSISGTSMATPHVAGLAAYLMTLGKTTAASACRYIADTANKGDLSNIPFGTVNLLAYNNYQA | – | – | – | – | – | – | – | – | 26 | 43 | 150 | 194 | 66 | 99

— patent US8063008B2, “Enzymatic production of peracids using perhydrolytic enzymes” (E. I. du Pont de Nemours and Company, priority 2005, dated 2011)
